Experimental data taken from ChEMBL document CHEMBL1135342, “Synthesis and evaluation of thymidine-5'-O-monophosphate analogues as inhibitors of Mycobacterium tuberculosis thymidylate kinase” (Bioorg Med Chem Lett, 2002).

Legend:
[1] = substrate: O=c1ccn([C@H]2C[C@H](O)[C@@H](COP(=O)(O)O)O2)c(=O)[nH]1; assay: (§1) Compound was tested for binding affinity against Mycobacterium tuberculosis thymidine monophosphate kinase
[2] = substrate: O=c1[nH]c(=O)n([C@H]2C[C@H](O)[C@@H](COP(=O)(O)O)O2)cc1I; assay: as §1
[3] = substrate: O=c1[nH]c(=O)n([C@H]2C[C@H](O)[C@@H](COP(=O)(O)O)O2)cc1F; assay: as §1
[4] = substrate: O=c1[nH]c(=O)n([C@H]2C[C@H](O)[C@@H](COP(=O)(O)O)O2)cc1Br; assay: as §1
[5] = substrate: Cc1cn([C@H]2C[C@H](O)[C@@H](COP(=O)(O)O)O2)c(=O)[nH]c1=O; assay: as §1
[6] = substrate: Cc1cn([C@H]2C[C@H](F)[C@@H](COP(=O)(O)O)O2)c(=O)[nH]c1=O; assay: as §1
[7] = substrate: Cc1cn(-c2ccc(COP(=O)(O)O)o2)c(=O)[nH]c1=O; assay: as §1

B1: Thymidylate kinase (Mycobacterium tuberculosis), P9WKE1 (protein)
chain: MLIAIEGVDGAGKRTLVEKLSGAFRAAGRSVATLAFPRYGQSVAADIAAEALHGEHGDLASSVYAMATLFALDRAGAVHTIQGLCRGYDVVILDRYVASNAAYSAARLHENAAGKAAAWVQRIEFARLGLPKPDWQVLLAVSAELAGERSRGRAQRDPGRARDNYERDAELQQRTGAVYAELAAQGWGGRWLVVGADVDPGRLAATLAPPDVPS
Question: For B1, which Km [1] is on record?
Answer: Its Km is 2100 µM.

Question: What about the Km [2] of the same protein?
Answer: Its Km is 140 µM.

Question: What about the Km [3] of the same protein?
Answer: Its Km is 420 µM.

Question: What about the Km [4] of the same protein?
Answer: The Km was 33 µM.

Question: What about the Km [5] of the same protein?
Answer: The Km was 4.5 µM.

Question: And the Km [6]?
Answer: The Km was 30 µM.

Question: What about the Km [7] of the same protein?
Answer: Its Km is 140 µM.
